Measurements as given in patent publication USRE50282.
*1 amine or outer side, *2 acyl side, *3 side chain or, on linkers, in order; H or OH if unused. Bridges are numbered along the chain shown (N, C = ends). Primed or numbered codes have the meaning given here. The star is where a group is joined. Biotin = O=C1N[C@H]2[C@H](CS[C@H]2CCCCC(=O)*)N1; Glutaryl = O=C(CCCC(=O)[*:2])[*:1]; HOOC(CH2)6CO = O=C(O)CCCCCCC(=O)*; PEG4′ = not defined here

Tests used:
[1] = target: human IgG (Chugai Pharmaceutical Co., Ltd.) (human); experiment: SPR (BIAcore T200), IgG immobilised; equilibrium value
[2] = target: human IgG (Chugai Pharmaceutical Co., Ltd.) (human); experiment: SPR (BIAcore T200), IgG immobilised; 1:1 binding fit
[3] = target: human IgG (Chugai Pharmaceutical Co., Ltd.) (human); experiment: SPR (BIAcore T200), IgG immobilised

Binder | Kd [1] [nM] | Kd [2] [nM] | fold decrease in affinity against Type I [3] [times]
{Biotin-PEG4′}-GDDCAYHK(Glutaryl)GELVWCTFH-NH2 (disulfide 4-14 (inferred)) [Type I(R8K)-DSG-OH, GDDCAYHK(DSG-OH)…-NH2] | 330 | 315 | 
{Biotin-PEG4′}-GPDCAYHRGELVWCTFH-NH2 (disulfide 4-14 (inferred)) [Type I IgG-binding peptide, …-NH2] | 10 | 9.1 | 
{Biotin-PEG4′}-GDDCAYHKGELVWCTFH-NH2 (disulfide 4-14 (inferred)) [Type I(R8K) IgG-binding peptide, …-NH2] | 131 | 156 | 10
{Biotin-PEG4′}-GDDCAYHK(HOOC(CH2)6CO)GELVWCTFH-NH2 (disulfide 4-14 (inferred)) [Type I(R8K)-DSS-OH, GDDCAYHK(DSS-OH)…-NH2] | 389 | 365 | 
